Measured values taken from the supplement of paper PMC7877785.
± gives the uncertainty stated by the source.

Assay: self-splicing fitness, log relative to wild type (ln ratio); higher = more splicing; Tetrahymena group I intron in knt gene, E. coli kanamycin selection, DiMSum; sequences stand for … in CUCUCU…GGAGGGAAAAGUUAUCAGGCAUGCACCUGGUAGCUAGUCUUUAAACCAAUAGAUUGCAUCGGUUUAAAAGGCAAGACCGUCAAAUUGCGGGAAAGGGGUCAACAGCCGUUCAGUACCAAGUCUCAGGGGAAACUUUGAGAUGGCCUUGCAAAGGGUAUGGUAAUAAGCUGACGGACAUGGUCCUAACCACGCAGCCAAGUCCUAAGUCAACAGAUCUUCUGUUGAUAUGGAUGCAGUUCACAGACUAAAUGUCGGUCGGGGAAGAUGUAUUCUUCUCAUAAGAUAUAGUCGGACCUCUCCUUAAUGGGAGCUAGCGGAUGAAGUGAUGCAACACUGGAGCCGCUGGGAACUAAUUUGUAUGCGAAAGUAUAUUGAUUAGUUUUGGAGUACUCGUGGUCG
Summary of the method: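 The eight P1ex-region nucleotides of an intron in the knt kanamycin-resistance gene on pET-22b(+) were all randomised and the library put into E. coli BL21(DE3). Six replicate transformations were grown overnight at 37°C or 30°C on LB agar with or without 25 μg/mL kanamycin, together with 100 μg/mL carbenicillin, 50 μM IPTG and 0.2% rhamnose. Colonies were pooled and amplicon-sequenced on an Illumina HiSeq 2500. Fitness from DiMSum is the error-weighted combination of wild-type-normalised replicate fold changes, kanamycin over none.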

Row | Sequence | self-splicing fitness (ln) (30 °C) | self-splicing fitness (ln) (37 °C)
1 | AAAAAGCAAUAUUACGAAAC | -3.11 ± 0.22 | -2.36 ± 0.16
2 | AAAAAGCAAUAUUACGAAUG | -1.48 ± 0.091 | -0.947 ± 0.12
3 | AAAAAGCAAUAUUACGACGA | 0.0233 ± 0.084 | -0.502 ± 0.1
4 | AAAAAGCAAUAUUACGAGCG | -0.337 ± 0.12 | -0.566 ± 0.11
5 | AAAAAGCAAUAUUACGAUCC | -0.549 ± 0.12 | 0.153 ± 0.18
6 | AAAAAGCAAUAUUACGAUCG | -0.0337 ± 0.054 | 0.0375 ± 0.068
7 | AAAAAGCAAUAUUACGAUGA | -0.913 ± 0.064 | -0.139 ± 0.084
8 | AAAAAGCAAUAUUACGAUGU | -0.893 ± 0.064 | -0.0506 ± 0.079
9 | AAAAAGCAAUAUUACGAUUC | -0.58 ± 0.091 | -0.42 ± 0.12
10 | AAAAAGCAAUAUUACGCCCU | 0.324 ± 0.1 | 0.202 ± 0.12
11 | AAAAAGCAAUAUUACGCCUA | -0.792 ± 0.12 | -0.855 ± 0.094
12 | AAAAAGCAAUAUUACGCUCA | -0.278 ± 0.058 | 0.0203 ± 0.082
13 | AAAAAGCAAUAUUACGGACC | -0.351 ± 0.092 | -0.225 ± 0.11
14 | AAAAAGCAAUAUUACGGGCU | -1.55 ± 0.074 | -1.24 ± 0.099
15 | AAAAAGCAAUAUUACGGUAA | -1.31 ± 0.12 | -0.53 ± 0.11
16 | AAAAAGCAAUAUUACGGUGG | -2.28 ± 0.1 | -1.77 ± 0.13
17 | AAAAAGCAAUAUUACGUACA | -0.777 ± 0.069 | -0.613 ± 0.071
18 | AAAAAGCAAUAUUACGUAUG | -2.02 ± 0.11 | -1.63 ± 0.13
19 | AAAAAGCAAUAUUACGUGCU | -1.68 ± 0.076 | -0.538 ± 0.079
20 | AAAAAGCAAUAUUACGUGUC | -3.44 ± 0.17 | -1.79 ± 0.17
21 | AAAAAGCAAUAUUACGUUGG | -3.28 ± 0.14 | -1.15 ± 0.11
22 | AAACAGCAAUAUUACGAAAC | -2.4 ± 0.24 | -1.51 ± 0.23
23 | AAACAGCAAUAUUACGAAUU | -2.36 ± 0.11 | -1.2 ± 0.13
24 | AAACAGCAAUAUUACGACUC | -0.613 ± 0.077 | -0.502 ± 0.098

Row | Sequence | self-splicing fitness (ln) (30 °C) | self-splicing fitness (ln) (37 °C)
25 | AAACAGCAAUAUUACGACUU | 0.0535 ± 0.066 | 0.468 ± 0.086
26 | AAACAGCAAUAUUACGAUAA | -1.6 ± 0.085 | -0.365 ± 0.092
27 | AAACAGCAAUAUUACGAUGC | -2.27 ± 0.058 | -1.55 ± 0.074
28 | AAACAGCAAUAUUACGAUUG | -3.35 ± 0.12 | -1.76 ± 0.12
29 | AAACAGCAAUAUUACGCACC | -0.45 ± 0.084 | -0.254 ± 0.099
30 | AAACAGCAAUAUUACGCACG | -1.45 ± 0.099 | -0.888 ± 0.11
31 | AAACAGCAAUAUUACGCCGA | -1.99 ± 0.087 | -1.35 ± 0.09
32 | AAACAGCAAUAUUACGCCGU | -2.54 ± 0.13 | -1.96 ± 0.11
33 | AAACAGCAAUAUUACGCUUA | -1.92 ± 0.087 | -0.649 ± 0.094
34 | AAACAGCAAUAUUACGCUUC | -3.6 ± 0.26 | -2.35 ± 0.21
35 | AAACAGCAAUAUUACGGCCU | -1.51 ± 0.064 | -0.591 ± 0.071
36 | AAACAGCAAUAUUACGGUCA | -0.86 ± 0.089 | 0.186 ± 0.097
37 | AAACAGCAAUAUUACGGUUA | -0.306 ± 0.056 | -0.167 ± 0.066
38 | AAACAGCAAUAUUACGUGCG | -1.52 ± 0.053 | -0.389 ± 0.065
39 | AAACAGCAAUAUUACGUUCU | -0.831 ± 0.061 | -0.0204 ± 0.077
40 | AAAGAGCAAUAUUACGAAAC | -3.23 ± 0.44 | -2.67 ± 0.48
41 | AAAGAGCAAUAUUACGAACU | -1.41 ± 0.18 | -1.14 ± 0.27
42 | AAAGAGCAAUAUUACGACUU | -0.0829 ± 0.067 | -0.0473 ± 0.079
43 | AAAGAGCAAUAUUACGAGGU | -4.63 ± 0.26 | -2.82 ± 0.19
44 | AAAGAGCAAUAUUACGAUUA | -2.18 ± 0.22 | -0.939 ± 0.17
45 | AAAGAGCAAUAUUACGCCUC | -0.411 ± 0.27 | –
46 | AAAGAGCAAUAUUACGCUGU | -3.2 ± 0.15 | -1.88 ± 0.16
47 | AAAGAGCAAUAUUACGCUUU | -3.18 ± 0.23 | -3.68 ± 0.36
48 | AAAGAGCAAUAUUACGGACC | – | -1.61 ± 0.3

Row | Sequence | self-splicing fitness (ln) (30 °C) | self-splicing fitness (ln) (37 °C)
49 | AAAGAGCAAUAUUACGGGCC | -2.09 ± 0.3 | -1.86 ± 0.41
50 | AAAGAGCAAUAUUACGGGGG | -2.5 ± 0.34 | -2.31 ± 0.39
51 | AAAGAGCAAUAUUACGGUCA | -1.91 ± 0.21 | -1.3 ± 0.17
52 | AAAGAGCAAUAUUACGGUCU | -2.5 ± 0.13 | -1.76 ± 0.14
53 | AAAGAGCAAUAUUACGUAGG | -3.36 ± 0.15 | -2.76 ± 0.25
54 | AAAGAGCAAUAUUACGUCAG | -4.01 ± 0.36 | -2.29 ± 0.32
55 | AAAGAGCAAUAUUACGUCUG | -3.55 ± 0.22 | -2.36 ± 0.2
56 | AAAGAGCAAUAUUACGUGAG | -2.95 ± 0.12 | -1.02 ± 0.12
57 | AAAGAGCAAUAUUACGUUAA | -3.16 ± 0.25 | -2.28 ± 0.28
58 | AAAGAGCAAUAUUACGUUGU | -3.11 ± 0.13 | -2.51 ± 0.2
59 | AAAUAGCAAUAUUACGACCG | -0.956 ± 0.15 | -0.441 ± 0.19
60 | AAAUAGCAAUAUUACGACGC | -0.825 ± 0.062 | 0.13 ± 0.085
61 | AAAUAGCAAUAUUACGACGU | 0.194 ± 0.083 | -0.646 ± 0.074
62 | AAAUAGCAAUAUUACGAGGA | -2.72 ± 0.19 | -1.88 ± 0.18
63 | AAAUAGCAAUAUUACGAGUA | -2.58 ± 0.19 | -1.09 ± 0.12
64 | AAAUAGCAAUAUUACGCAAG | -2.14 ± 0.094 | -1.13 ± 0.11
65 | AAAUAGCAAUAUUACGCAAU | -2.44 ± 0.13 | -0.689 ± 0.12
66 | AAAUAGCAAUAUUACGCAGA | -2.07 ± 0.26 | –
67 | AAAUAGCAAUAUUACGCGAA | -1.42 ± 0.14 | -1.59 ± 0.16
68 | AAAUAGCAAUAUUACGCGAC | -2.2 ± 0.17 | -1.03 ± 0.2
69 | AAAUAGCAAUAUUACGCGCA | -0.264 ± 0.092 | -0.103 ± 0.11
70 | AAAUAGCAAUAUUACGCGCG | -0.988 ± 0.1 | -0.952 ± 0.11
71 | AAAUAGCAAUAUUACGCGUA | -2.41 ± 0.21 | -1.04 ± 0.13
72 | AAAUAGCAAUAUUACGCUCA | -0.111 ± 0.13 | 0.39 ± 0.16

Row | Sequence | self-splicing fitness (ln) (30 °C) | self-splicing fitness (ln) (37 °C)
73 | AAAUAGCAAUAUUACGUAGG | -2.59 ± 0.1 | -1.96 ± 0.1
74 | AAAUAGCAAUAUUACGUAUU | -2.56 ± 0.11 | -0.844 ± 0.094
75 | AAAUAGCAAUAUUACGUCCU | -0.0903 ± 0.081 | 0.319 ± 0.1
76 | AAAUAGCAAUAUUACGUGGU | -3.87 ± 0.16 | -2.84 ± 0.15
77 | AAAUAGCAAUAUUACGUUAA | -2.87 ± 0.2 | -2.1 ± 0.24
78 | AAAUAGCAAUAUUACGUUCU | -0.419 ± 0.069 | -0.584 ± 0.091
79 | AAAUAGCAAUAUUACGUUUU | -2.81 ± 0.11 | -1.05 ± 0.099
80 | AACAAGCAAUAUUACGAACA | -1.16 ± 0.11 | -0.392 ± 0.11
81 | AACAAGCAAUAUUACGAACG | -1.33 ± 0.11 | -0.418 ± 0.13
82 | AACAAGCAAUAUUACGACGU | 0.394 ± 0.063 | 0.441 ± 0.07
83 | AACAAGCAAUAUUACGACUC | -0.216 ± 0.072 | 0.125 ± 0.097
84 | AACAAGCAAUAUUACGAGUC | -3.19 ± 0.12 | -1.89 ± 0.14
85 | AACAAGCAAUAUUACGAUAU | -1.42 ± 0.098 | -1.03 ± 0.12
86 | AACAAGCAAUAUUACGAUCA | -0.766 ± 0.058 | -0.628 ± 0.078
87 | AACAAGCAAUAUUACGCAAU | -1.37 ± 0.096 | -1.09 ± 0.12
88 | AACAAGCAAUAUUACGCACU | 0.195 ± 0.069 | -0.195 ± 0.083
89 | AACAAGCAAUAUUACGCAGC | -3.18 ± 0.16 | -2.53 ± 0.18
90 | AACAAGCAAUAUUACGCGAG | -1.58 ± 0.072 | -0.559 ± 0.067
91 | AACAAGCAAUAUUACGCUCC | -2.2 ± 0.12 | -0.601 ± 0.13
92 | AACAAGCAAUAUUACGCUUC | -4.57 ± 0.3 | -2.75 ± 0.26
93 | AACAAGCAAUAUUACGGAAC | -3.32 ± 0.16 | -1.73 ± 0.15
94 | AACAAGCAAUAUUACGGCCA | -0.5 ± 0.077 | -0.412 ± 0.092
95 | AACAAGCAAUAUUACGGCCG | -0.739 ± 0.12 | 0.121 ± 0.15
96 | AACAAGCAAUAUUACGGGUG | -0.579 ± 0.047 | -0.604 ± 0.064
